Bridges are numbered along the chain shown (N, C = ends). Where no end group is shown, it is not given here. [ ]: non-standard residue; d: D form. The star is where a group is joined. Biotin = O=C1N[C@H]2[C@H](CS[C@H]2CCCCC(=O)*)N1; R8 = C=CCCCCCC[C@@](C)(N)C(=O)O; Cba = N[C@@H](CC1CCC1)C(=O)O; S5 = C=CCCC[C@](C)(N)C(=O)O
Biological target: T1, recombinant HDMX (amino acids 1-490 of SEQ ID NO:104) (Homo sapiens, UniProt O15151)
T1 construct: thioredoxin (N, cleaved yes); S tag (N, cleaved yes); hexahistidine (N, cleaved yes); made in house; host or cells: E. coli (inferred: pET32-LIC vector, handled as described for HDM2 in BL21(DE3))
T1 sequence (O15151 1-490): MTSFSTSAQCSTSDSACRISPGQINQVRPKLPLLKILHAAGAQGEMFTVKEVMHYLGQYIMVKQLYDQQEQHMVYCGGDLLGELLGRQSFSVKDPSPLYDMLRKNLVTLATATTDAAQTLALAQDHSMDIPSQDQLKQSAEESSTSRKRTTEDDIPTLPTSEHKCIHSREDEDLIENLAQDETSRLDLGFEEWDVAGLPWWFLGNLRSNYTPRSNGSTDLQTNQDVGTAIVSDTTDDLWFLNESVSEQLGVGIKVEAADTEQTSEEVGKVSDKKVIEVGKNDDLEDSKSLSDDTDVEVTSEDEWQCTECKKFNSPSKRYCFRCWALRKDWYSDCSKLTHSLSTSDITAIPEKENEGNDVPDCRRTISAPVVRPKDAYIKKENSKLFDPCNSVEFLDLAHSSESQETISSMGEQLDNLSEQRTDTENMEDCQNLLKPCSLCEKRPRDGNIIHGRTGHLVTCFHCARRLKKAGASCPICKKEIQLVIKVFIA
Experiment: Competitive streptavidin pull-down of biotinylated peptides with 1:1 recombinant HDM2/HDMX mixture, HDMX western
Type: binding
Conditions: biotinylated stapled peptide, 1:1 mixture of recombinant HDM2 and HDMX

Substance	HDMX versus HDM2 binding selectivity	also measured
ATSP-7041 B26D (Biotin-LTF[R8]EYWAQD[S5]SAA-NH2; staple 4-11; SMILES CC(C)C[C@H](NC(=O)CCCC[C@@H]1SC[C@@H]2NC(=O)N[C@@H]21)C(=O)N[C@H](C(=O)N[C@@H](Cc1ccccc1)C(=O)N[C@]1(C)CCCCCCC=CCCC[C@@](C)(C(=O)N[C@@H](CO)C(=O)N[C@@H](C)C(=O)N[C@@H](C)C(N)=O)NC(=O)[C@H](CC(=O)O)NC(=O)[C@H](CCC(N)=O)NC(=O)[C@H](C)NC(=O)[C@H](Cc2c[nH]c3ccccc23)NC(=O)[C@H](Cc2ccc(O)cc2)NC(=O)[C@H](CCC(=O)O)NC1=O)[C@@H](C)O)	HDMX selectivity over HDM2	–
LTF8EYWEQBXSAA (LTF[R8]EYWEQ[Cba][S5]SAA-NH2; staple 4-11; not fully specified (N-terminus); printed as LTF8EYWEQBXSAA) [ATSP-7041 A24E]	restored dual HDM2/HDMX binding selectivity	HDMX versus HDM2 binding selectivity (listed as SEQ ID NO:77): dual-selectivity to HDMX and HDM2
ATSP-7041 B26Q (Biotin-LTF[R8]EYWAQQ[S5]SAA-NH2; staple 4-11; SMILES CC(C)C[C@H](NC(=O)CCCC[C@@H]1SC[C@@H]2NC(=O)N[C@@H]21)C(=O)N[C@H](C(=O)N[C@@H](Cc1ccccc1)C(=O)N[C@]1(C)CCCCCCC=CCCC[C@@](C)(C(=O)N[C@@H](CO)C(=O)N[C@@H](C)C(=O)N[C@@H](C)C(N)=O)NC(=O)[C@H](CCC(N)=O)NC(=O)[C@H](CCC(N)=O)NC(=O)[C@H](C)NC(=O)[C@H](Cc2c[nH]c3ccccc23)NC(=O)[C@H](Cc2ccc(O)cc2)NC(=O)[C@H](CCC(=O)O)NC1=O)[C@@H](C)O)	HDMX selectivity over HDM2	–
SAH-p53-4 K24A: Formula (I) stapled peptide: [Xaa]w LSQETF, [Xaa]x DLWALL, [Xaa]y EN (LSQETF[R8]DLWALL[S5]EN-NH2; staple 7-14; not fully specified (N-terminus))	selectivity to HDM2	–
SAH-p53-4 L14E: Formula (I) stapled peptide: [Xaa]w ESQETF, [Xaa]x DLWKLL, [Xaa]y EN (ESQETF[R8]DLWKLL[S5]EN-NH2; staple 7-14; also: biotinylated)	selectivity to HDM2	–
LTF8EYWAQBXSAA [ATSP-7041, reference compound]	dual-HDM2/HDMX targeting	–
SAH-p53-4 D21A: Formula (I) stapled peptide: [Xaa]w LSQETF, [Xaa]x ALWKLL, [Xaa]y EN (LSQETF[R8]ALWKLL[S5]EN-NH2; staple 7-14; not fully specified (N-terminus))	HDMX selectivity over HDM2	HDMX versus HDM2 binding selectivity (listed as SEQ ID NO:8): selectivity to HDMX
SAH-p53-4 S15A: Formula (I) stapled peptide: [Xaa]w LAQETF, [Xaa]x DLWKLL, [Xaa]y EN (LAQETF[R8]DLWKLL[S5]EN-NH2; staple 7-14; not fully specified)	selectivity to HDM2	–
SAH-p53-4 E17R: Formula (I) stapled peptide: [Xaa]w LSQRTF, [Xaa]x DLWKLL, [Xaa]y EN (LSQRTF[R8]DLWKLL[S5]EN-NH2; staple 7-14; not fully specified (N-terminus))	dual selectivity to HDMX and HDM2	–
SAH-p53-4 Q16E: Formula (I) stapled peptide: [Xaa]w LSEETF, [Xaa]x DLWKLL, [Xaa]y EN (LSEETF[R8]DLWKLL[S5]EN-NH2; staple 7-14; not fully specified (N-terminus))	HDMX selectivity over HDM2	HDMX versus HDM2 binding selectivity (listed as SEQ ID NO:32): selectivity to HDMX
SAH-p53-4 S15E: Formula (I) stapled peptide: [Xaa]w LEQETF, [Xaa]x DLWKLL, [Xaa]y EN (LEQETF[R8]DLWKLL[S5]EN-NH2; staple 7-14; not fully specified)	selectivity to HDM2	–
SAH-p53-4 E28R: Formula (I) stapled peptide: [Xaa]w LSQETF, [Xaa]x DLWKLL, [Xaa]y RN (LSQETF[R8]DLWKLL[S5]RN-NH2; staple 7-14; not fully specified (N-terminus))	dual selectivity to HDMX and HDM2	–
ATSP-7041 B26K (Biotin-LTF[R8]EYWAQK[S5]SAA-NH2; staple 4-11; SMILES CC(C)C[C@H](NC(=O)CCCC[C@@H]1SC[C@@H]2NC(=O)N[C@@H]21)C(=O)N[C@H](C(=O)N[C@@H](Cc1ccccc1)C(=O)N[C@]1(C)CCCCCCC=CCCC[C@@](C)(C(=O)N[C@@H](CO)C(=O)N[C@@H](C)C(=O)N[C@@H](C)C(N)=O)NC(=O)[C@H](CCCCN)NC(=O)[C@H](CCC(N)=O)NC(=O)[C@H](C)NC(=O)[C@H](Cc2c[nH]c3ccccc23)NC(=O)[C@H](Cc2ccc(O)cc2)NC(=O)[C@H](CCC(=O)O)NC1=O)[C@@H](C)O)	HDMX selectivity over HDM2	HDMX versus HDM2 binding selectivity (listed as SEQ ID NO:64): selectivity to HDMX
ATSP-7041 B26N (Biotin-LTF[R8]EYWAQN[S5]SAA-NH2; staple 4-11; SMILES CC(C)C[C@H](NC(=O)CCCC[C@@H]1SC[C@@H]2NC(=O)N[C@@H]21)C(=O)N[C@H](C(=O)N[C@@H](Cc1ccccc1)C(=O)N[C@]1(C)CCCCCCC=CCCC[C@@](C)(C(=O)N[C@@H](CO)C(=O)N[C@@H](C)C(=O)N[C@@H](C)C(N)=O)NC(=O)[C@H](CC(N)=O)NC(=O)[C@H](CCC(N)=O)NC(=O)[C@H](C)NC(=O)[C@H](Cc2c[nH]c3ccccc23)NC(=O)[C@H](Cc2ccc(O)cc2)NC(=O)[C@H](CCC(=O)O)NC1=O)[C@@H](C)O)	HDMX selectivity over HDM2	–
ATSP-7041 B26S (Biotin-LTF[R8]EYWAQS[S5]SAA-NH2; staple 4-11; SMILES CC(C)C[C@H](NC(=O)CCCC[C@@H]1SC[C@@H]2NC(=O)N[C@@H]21)C(=O)N[C@H](C(=O)N[C@@H](Cc1ccccc1)C(=O)N[C@]1(C)CCCCCCC=CCCC[C@@](C)(C(=O)N[C@@H](CO)C(=O)N[C@@H](C)C(=O)N[C@@H](C)C(N)=O)NC(=O)[C@H](CO)NC(=O)[C@H](CCC(N)=O)NC(=O)[C@H](C)NC(=O)[C@H](Cc2c[nH]c3ccccc23)NC(=O)[C@H](Cc2ccc(O)cc2)NC(=O)[C@H](CCC(=O)O)NC1=O)[C@@H](C)O)	HDMX selectivity over HDM2	–
ATSP-7041 B26P (Biotin-LTF[R8]EYWAQP[S5]SAA-NH2; staple 4-11; SMILES CC(C)C[C@H](NC(=O)CCCC[C@@H]1SC[C@@H]2NC(=O)N[C@@H]21)C(=O)N[C@H](C(=O)N[C@@H](Cc1ccccc1)C(=O)N[C@]1(C)CCCCCCC=CCCC[C@@](C)(C(=O)N[C@@H](CO)C(=O)N[C@@H](C)C(=O)N[C@@H](C)C(N)=O)NC(=O)[C@@H]2CCCN2C(=O)[C@H](CCC(N)=O)NC(=O)[C@H](C)NC(=O)[C@H](Cc2c[nH]c3ccccc23)NC(=O)[C@H](Cc2ccc(O)cc2)NC(=O)[C@H](CCC(=O)O)NC1=O)[C@@H](C)O)	HDMX selectivity over HDM2	–

Reference: US20230192789A1, “STRUCTURALLY-STABILIZED AND HDMX-SELECTIVE P53 PEPTIDES AND USES THEREOF” (Dana-Farber Cancer Institute, Inc., priority 2020, published 2023)
